Laboratory results taken from PMC3812244, “Organophosphate and Pyrethroid Hydrolase Activities of Mutant Esterases from the Cotton Bollworm Helicoverpa armigera” (PLoS ONE, 2013).

Tests used:
Assay in all cases: spectrophotometric esterase kinetics, active-site titrated enzyme
Settings in all cases: wild-type values collected contemporaneously, also reported in Teese et al. [32]
CC(=O)Oc1cccc2ccccc12 = assay type: biochemical, Lucilia cuprina
Excerpt: spectrophotometric esterase kinetics, active-site titrated enzyme on E3

001f (CCE-001f) = system: T1, 001f (CCE-001f); assay type: biochemical, Helicoverpa armigera
T1 construct: gene CCE001f; untagged, baculovirus expressed in Sf9 cells; titrated active sites
Excerpt: spectrophotometric esterase kinetics, active-site titrated enzyme on 001f (CCE-001f)

001b (CCE-001b) = system: T2, 001b (CCE-001b); assay type: biochemical, Helicoverpa armigera
T2 construct: gene CCE001b; untagged, baculovirus expressed in Sf9 cells; titrated active sites
Excerpt: spectrophotometric esterase kinetics, active-site titrated enzyme on 001b (CCE-001b)

Compound: E3 (Lucilia cuprina)
- Km (CC(=O)Oc1cccc2ccccc12): 88 (10) µM
- kcat (CC(=O)Oc1cccc2ccccc12): 1399 (70) sec^-1

Compound: CC(=O)Oc1cccc2ccccc12 [1-naphthyl acetate]
- Km (001f (CCE-001f)): 4 µM
- Km (001b (CCE-001b)): 199 µM
